{"source": "paper PMC10267580", "parents": {"B1": {"name": "Rab6B^Q72L, GTPase domain (residues 8-176), constitutively active mutant [mouse] / ELKS1_RBD, Rab-binding domain of ELKS1 (residues 849-922) [rat] (parent)", "chain 1": "RKHLEEVLEMKQEALLAAISEKDANIALLELSSSKKKTQEEVAALKREKDRLVQQLKQQTQNRMKLMADNYEDD", "chain 2": "GNPLRKFKLVFLGEQSVGKTSLITRFMYDSFDNTYQATIGIDFLSKTMYLEDRTVRLQLWDTAGLERFRSLIPSYIRDSTVAVVVYDITNLNSFQQTSKWIDDVRTERGSDVIIMLVGNKTDLADKRQITIEEGEQRAKELSVMFIETSAKTGYNVKQLFRRVASALPG"}}}
{"variants_of": "B1", "test": "ITC", "settings": "with ELKS1_RBD", "units": {"Kd": "µM"}}
{"variant": "chain 2 L4E", "Kd": "> 50"}
{"variants_of": "B1", "test": "ITC", "settings": "with Rab6B^Q72L", "units": {"Kd": "µM"}}
{"variant": "chain 1 S20A", "Kd": 26}
